Source: paper PMC11409674, “Raffinocyclicin is a novel plasmid-encoded circular bacteriocin produced by Lactococcus raffinolactis with broad-spectrum activity against many gram-positive food pathogens” (Applied and environmental microbiology, 2024)

Legend:
proteinase K = biological target: T1, proteinase K (Parengyodontium album, UniProt P06873); test: residual antimicrobial activity after proteinase K treatment; format: in vitro ADME; settings: proteinase K 1 mg/mL, 37 °C, 4 h
T1 construct: purchased Sigma-Aldrich, St Louis, USA
T1 sequence (P06873 106-384): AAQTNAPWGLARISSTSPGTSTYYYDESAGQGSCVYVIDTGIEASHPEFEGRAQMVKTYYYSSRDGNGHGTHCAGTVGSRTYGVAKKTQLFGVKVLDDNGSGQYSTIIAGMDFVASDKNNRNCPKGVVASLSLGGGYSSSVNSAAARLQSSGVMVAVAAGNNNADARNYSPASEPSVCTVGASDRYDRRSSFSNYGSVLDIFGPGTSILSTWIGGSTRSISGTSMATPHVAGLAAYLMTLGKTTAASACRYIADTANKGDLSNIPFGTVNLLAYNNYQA

proteases = system: proteases; parameters: method as in 4 sources, ref 33 = [33]; PMID 21948835; doi:10.1128/AEM.06348-11; 33 Masuda Y Ono H Kitagawa H Ito H Mu F Sawa N Zendo T Sonomoto K Identification and characterization of leucocyclicin Q, a novel cyclic bacteriocin produced by Leuconostoc mesenteroides TK41401 Appl ||| ref 27 = [27]; PMID 21057028; doi:10.1128/AEM.01173-10; 27 Borrero J Brede DA Skaugen M Diep DB Herranz C Nes IF Cintas LM Hernández PE Characterization of garvicin ML, a novel circular bacteriocin produced by Lactococcus garvieae DCC43, isolated from mall ||| ref 30 = [30]; PMID 29177092; doi:10.1099/mgen.0.000134; 30 van Heel AJ Montalban-Lopez M Oliveau Q Kuipers OP Genome-guided identification of novel head-to-tail cyclized antimicrobial peptides, exemplified by the discovery of pumilarin Microb Genom 2017 3 ||| ref 29 = [29]; PMID 18552180; doi:10.1128/AEM.00817-08; 29 Martin-Visscher LA van Belkum MJ Garneau-Tsodikova S Whittal RM Zheng J McMullen LM Vederas JC Isolation and characterization of carnocyclin A, a novel circular bacteriocin produced by Carnobacteri; settings: cited from earlier work

| Substance | loss of activity when treated with proteinase K (proteinase K; indicator L. lactis HP) | Phenotype (proteinase K; 40 µL spotted around chloroform-inactivated producer spot, overlay L. lactis HP, 30 °C, 24 h) | Residual activity (proteinase K; 40 µL spotted around chloroform-inactivated producer spot, overlay L. lactis HP, 30 °C, 24 h, true halo treated/control (10 mM PBS pH 7.4) × 100) [%] | antimicrobial activity after protease treatment (proteases) |
| --- | --- | --- | --- | --- |
| raffinocyclicin | over 90% | S | 7 |  |
| carnocyclin A (LVAYGIAQGTAEKVVSLINAGLTVGSIISILGGVTVGLSGVFTAVKAAIAKQGIKKAIQL; UniProt B2MVM5 5-64, looked up) [circular bacteriocin] |  |  |  | completely abolished |
